Data on one molecule can be found in PMC2225448 (Structure(London, England:1993), 2007).

The assay deals with Human SOCS4 (amino acids 274-437) (human, UniProt Q8WXH5 274-437). Kind of assay: crystal structure; ternary complex coexpressed and purified; crystals at 4°C from 10% PEG6000, 2M NaCl; molecular replacement, refined to 2.5 Å. The settings on record: both partners purified.
Sequence of Human SOCS4 (amino acids 274-437) (Q8WXH5 274-437): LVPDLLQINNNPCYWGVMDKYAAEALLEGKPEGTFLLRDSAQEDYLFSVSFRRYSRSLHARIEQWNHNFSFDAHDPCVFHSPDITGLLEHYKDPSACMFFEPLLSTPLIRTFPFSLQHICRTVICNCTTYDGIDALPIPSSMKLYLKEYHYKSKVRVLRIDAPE

B1: ElonginB (natural protein, human)
chain: MDVFLMIRRHKTTIFTDAKESSTVFELKRIVEGILKRPPDEQRLYKDDQLLDDGKTLGECGFTSQTARPQAPATVGLAFRADDTFEALCIEPFSSPPELPDVMKPQDSGSSANEQAVQ
For the molecule B1, the binding result is “binds”.
